# Source: patent US20190023807A1 (CRESCENDO BIOLOGICS, published 2019)
# B1: HiPEG D-His6 val-cit-PAB-MMAE (other)
# VH: EVQLLESGGGLVQPGGSLRLSCAASGFRISDEDMGWVRQAPGKGLEWVSSIYGPSGSTYYADSVKGRFTISRDNSKNTLYLQMNSLRAEDTAVYYCASALEPLSEPLGFWGQGTLVTVSSAAAHHHHHH
# modifications: HiPEG val-cit-PAB-MMAE attached via the C-terminal His6 tag
# Legend:
# [1] = target: T1, human PSMA (prostate specific membrane antigen), full-length, expressed on cells (human, UniProt Q04609 1-750); assay: cell-based or functional assay
# T1 sequence (Q04609 whole entry): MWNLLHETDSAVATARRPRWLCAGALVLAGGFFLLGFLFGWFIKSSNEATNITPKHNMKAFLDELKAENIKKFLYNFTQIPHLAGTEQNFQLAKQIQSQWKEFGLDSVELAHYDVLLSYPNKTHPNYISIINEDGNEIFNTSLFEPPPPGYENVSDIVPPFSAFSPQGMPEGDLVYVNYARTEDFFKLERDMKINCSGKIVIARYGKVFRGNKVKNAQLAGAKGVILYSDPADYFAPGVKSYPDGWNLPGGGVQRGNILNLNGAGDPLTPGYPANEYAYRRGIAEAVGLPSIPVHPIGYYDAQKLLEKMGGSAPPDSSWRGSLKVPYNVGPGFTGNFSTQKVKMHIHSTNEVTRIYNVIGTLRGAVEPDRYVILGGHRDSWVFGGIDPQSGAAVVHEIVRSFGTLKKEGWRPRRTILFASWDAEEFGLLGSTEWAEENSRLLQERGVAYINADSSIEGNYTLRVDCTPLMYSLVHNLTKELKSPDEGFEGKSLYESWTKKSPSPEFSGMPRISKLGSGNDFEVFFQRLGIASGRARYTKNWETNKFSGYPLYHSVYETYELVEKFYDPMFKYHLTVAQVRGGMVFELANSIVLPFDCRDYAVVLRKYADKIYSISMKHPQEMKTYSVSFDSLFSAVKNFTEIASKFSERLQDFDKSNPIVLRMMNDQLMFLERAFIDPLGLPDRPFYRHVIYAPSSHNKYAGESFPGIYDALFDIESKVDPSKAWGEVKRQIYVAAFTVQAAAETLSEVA
# [2] = target: T1, human PSMA (prostate specific membrane …); assay: cell-based or functional assay; remark: listed apart in the source
binder,measurement,setting,value
B1,"cytotoxicity on PSMA-DU145, 48 h, Mean IC50",[1],> 300 nM
same,"PSMA-DU145 cytotoxicity assay (72 h), IC50",[2],> 100 nM
same,"PSMA-DU145 cytotoxicity assay (72 h), IC50 (toxin)",[2],> 100 nM
